± gives the uncertainty stated by the source.
Test: self-splicing fitness, log relative to wild type (ln ratio); higher = more splicing; Tetrahymena group I intron in knt gene, E. coli kanamycin selection, DiMSum; sequences stand for … in CUCUCU…GGAGGGAAAAGUUAUCAGGCAUGCACCUGGUAGCUAGUCUUUAAACCAAUAGAUUGCAUCGGUUUAAAAGGCAAGACCGUCAAAUUGCGGGAAAGGGGUCAACAGCCGUUCAGUACCAAGUCUCAGGGGAAACUUUGAGAUGGCCUUGCAAAGGGUAUGGUAAUAAGCUGACGGACAUGGUCCUAACCACGCAGCCAAGUCCUAAGUCAACAGAUCUUCUGUUGAUAUGGAUGCAGUUCACAGACUAAAUGUCGGUCGGGGAAGAUGUAUUCUUCUCAUAAGAUAUAGUCGGACCUCUCCUUAAUGGGAGCUAGCGGAUGAAGUGAUGCAACACUGGAGCCGCUGGGAACUAAUUUGUAUGCGAAAGUAUAUUGAUUAGUUUUGGAGUACUCGUGGUCG
Summary of the method: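 Colonies from six replicate transformations of E. coli BL21(DE3) were pooled and amplicon-sequenced on an Illumina HiSeq 2500. The library placed an intron with all eight P1ex-region nucleotides randomised inside the knt kanamycin-resistance gene on pET-22b(+), and cells grew overnight at 37°C or 30°C on LB agar with or without 25 μg/mL kanamycin (plus 100 μg/mL carbenicillin, 50 μM IPTG, 0.2% rhamnose). Fitness is the DiMSum error-weighted combination of wild-type-normalised replicate fold changes, kanamycin versus none.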

| Sequence | self-splicing fitness (ln) (30 °C) | self-splicing fitness (ln) (37 °C) |
| --- | --- | --- |
| CUAUAGCAAUAUUACGCUGG | -3.36 ± 0.37 | -2.05 ± 0.32 |
| CUAUAGCAAUAUUACGGAUU | -3.43 ± 0.24 | -2.29 ± 0.24 |
| CUAUAGCAAUAUUACGGCGA |  | -0.914 ± 0.47 |
| CUAUAGCAAUAUUACGGGAA | -2.55 ± 0.32 | -2.26 ± 0.31 |
| CUAUAGCAAUAUUACGGGCA | -3.19 ± 0.26 | -1.89 ± 0.18 |
| CUAUAGCAAUAUUACGGGUU | -3.13 ± 0.23 | -1.38 ± 0.19 |
| CUAUAGCAAUAUUACGGUAC | -3.68 ± 0.28 | -1.51 ± 0.25 |
| CUAUAGCAAUAUUACGGUCU | -4.51 ± 0.36 | -2.14 ± 0.29 |
| CUAUAGCAAUAUUACGUAAA | -3.63 ± 0.24 |  |
| CUAUAGCAAUAUUACGUAUG | -1.52 ± 0.085 | -0.647 ± 0.099 |
| CUAUAGCAAUAUUACGUCGA | -2.18 ± 0.22 | -2.6 ± 0.38 |
| CUAUAGCAAUAUUACGUCGU |  | -2.24 ± 0.34 |
| CUAUAGCAAUAUUACGUGGC | -2.86 ± 0.24 | -1.8 ± 0.28 |
| CUAUAGCAAUAUUACGUUGA | -3.67 ± 0.32 | -3.42 ± 0.35 |
| CUAUAGCAAUAUUACGUUGC | -2.61 ± 0.32 | -2.37 ± 0.32 |
| CUCAAGCAAUAUUACGAAAG | -2.12 ± 0.11 | -0.747 ± 0.13 |
| CUCAAGCAAUAUUACGACAA | -2.86 ± 0.23 | -1.89 ± 0.21 |
| CUCAAGCAAUAUUACGACGC | -1.75 ± 0.24 | -2.18 ± 0.42 |
| CUCAAGCAAUAUUACGACGG | -0.942 ± 0.1 | -1.05 ± 0.13 |
| CUCAAGCAAUAUUACGAUAA | -3.78 ± 0.16 | -1.93 ± 0.12 |
| CUCAAGCAAUAUUACGAUGC | -3.9 ± 0.15 | -2.95 ± 0.17 |

| Sequence | self-splicing fitness (ln) (30 °C) | self-splicing fitness (ln) (37 °C) |
| --- | --- | --- |
| CUCAAGCAAUAUUACGAUGU | -2.6 ± 0.11 | -1.21 ± 0.13 |
| CUCAAGCAAUAUUACGCAAG |  | -0.876 ± 0.27 |
| CUCAAGCAAUAUUACGCCAG | -3.03 ± 0.28 | -0.675 ± 0.29 |
| CUCAAGCAAUAUUACGCUAA | -3.13 ± 0.2 | -2.96 ± 0.22 |
| CUCAAGCAAUAUUACGCUCG |  | -0.979 ± 0.33 |
| CUCAAGCAAUAUUACGGUAU | -3.61 ± 0.17 | -2.08 ± 0.17 |
| CUCAAGCAAUAUUACGGUGC | -4.1 ± 0.31 | -3.19 ± 0.27 |
| CUCAAGCAAUAUUACGGUGU | -3.3 ± 0.12 | -1.31 ± 0.13 |
| CUCAAGCAAUAUUACGGUUA | -2.78 ± 0.2 | -2.81 ± 0.2 |
| CUCAAGCAAUAUUACGUACC | -4.45 ± 0.34 | -2.04 ± 0.23 |
| CUCAAGCAAUAUUACGUCCG | -2.08 ± 0.12 | -1.38 ± 0.13 |
| CUCAAGCAAUAUUACGUGCC | -2.96 ± 0.11 | -2.29 ± 0.17 |
| CUCAAGCAAUAUUACGUGGC | -4.37 ± 0.22 | -2.24 ± 0.14 |
| CUCAAGCAAUAUUACGUGUC | -3.37 ± 0.11 | -1.65 ± 0.1 |
| CUCAAGCAAUAUUACGUGUG | -2.73 ± 0.074 | -1.42 ± 0.072 |
| CUCAAGCAAUAUUACGUUCA | -2.07 ± 0.15 | -1.46 ± 0.14 |
| CUCAAGCAAUAUUACGUUGA | -3.13 ± 0.21 | -2.48 ± 0.2 |
| CUCCAGCAAUAUUACGACGU | -3.83 ± 0.21 | -2.01 ± 0.21 |
| CUCCAGCAAUAUUACGAUAU | -2.46 ± 0.19 | -2.95 ± 0.47 |
| CUCCAGCAAUAUUACGAUGU | -3.28 ± 0.17 | -2.9 ± 0.21 |
| CUCCAGCAAUAUUACGCAAA | -3.21 ± 0.21 | -2.68 ± 0.26 |

| Sequence | self-splicing fitness (ln) (30 °C) | self-splicing fitness (ln) (37 °C) |
| --- | --- | --- |
| CUCCAGCAAUAUUACGCAUA |  | -2.21 ± 0.29 |
| CUCCAGCAAUAUUACGCAUG | -2.12 ± 0.08 | -1.06 ± 0.074 |
| CUCCAGCAAUAUUACGCCGA | -2.27 ± 0.42 |  |
| CUCCAGCAAUAUUACGGAAA | -2.25 ± 0.13 | -1.55 ± 0.12 |
| CUCCAGCAAUAUUACGGAAC | -4.55 ± 0.46 | -2.33 ± 0.21 |
| CUCCAGCAAUAUUACGGAUG | -2.46 ± 0.13 | -1.38 ± 0.14 |
| CUCCAGCAAUAUUACGGCAG | -4.58 ± 0.21 | -1.75 ± 0.15 |
| CUCCAGCAAUAUUACGGCGC | -3.37 ± 0.18 | -2.81 ± 0.27 |
| CUCCAGCAAUAUUACGGGAA | -1.92 ± 0.086 | -0.479 ± 0.093 |
| CUCCAGCAAUAUUACGGGCA |  | -2.52 ± 0.27 |
| CUCCAGCAAUAUUACGGUAC | -2.28 ± 0.12 | -1.86 ± 0.16 |
| CUCCAGCAAUAUUACGGUGU | -4.11 ± 0.15 | -2.28 ± 0.13 |
| CUCCAGCAAUAUUACGUGAG | -3.61 ± 0.15 | -2.62 ± 0.18 |
| CUCCAGCAAUAUUACGUGGU | -3.42 ± 0.12 | -3.19 ± 0.15 |
| CUCGAGCAAUAUUACGAAAC | -3.52 ± 0.33 | -1.99 ± 0.33 |
| CUCGAGCAAUAUUACGAAAG | -2.85 ± 0.14 | -1.58 ± 0.15 |
| CUCGAGCAAUAUUACGACAG | -1.76 ± 0.15 | -1.42 ± 0.21 |
| CUCGAGCAAUAUUACGACUC | -4.16 ± 0.22 | -2.61 ± 0.24 |
| CUCGAGCAAUAUUACGAGGG | -3.45 ± 0.28 | -1.83 ± 0.35 |
| CUCGAGCAAUAUUACGAUAC |  | -2.64 ± 0.36 |
| CUCGAGCAAUAUUACGAUGC | -4.39 ± 0.46 | -3 ± 0.47 |

| Sequence | self-splicing fitness (ln) (30 °C) | self-splicing fitness (ln) (37 °C) |
| --- | --- | --- |
| CUCGAGCAAUAUUACGAUUC | -3.29 ± 0.47 |  |
| CUCGAGCAAUAUUACGCAAU | -3.57 ± 0.2 |  |
| CUCGAGCAAUAUUACGCAUG | -3.27 ± 0.2 | -3.58 ± 0.42 |
| CUCGAGCAAUAUUACGCCAC | -2.89 ± 0.43 | -1.24 ± 0.43 |
| CUCGAGCAAUAUUACGCCCG |  | -2.74 ± 0.43 |
| CUCGAGCAAUAUUACGCGAC |  | -0.0316 ± 0.34 |
| CUCGAGCAAUAUUACGGAGG | -2.97 ± 0.1 | -1.46 ± 0.097 |
| CUCGAGCAAUAUUACGGAUG | -2.21 ± 0.13 | -1.46 ± 0.17 |
| CUCGAGCAAUAUUACGGGCG | -2.65 ± 0.17 | -2.1 ± 0.25 |
| CUCGAGCAAUAUUACGGGGG | -4.18 ± 0.42 |  |
| CUCGAGCAAUAUUACGGUCC | -3 ± 0.36 | -2.33 ± 0.45 |
| CUCGAGCAAUAUUACGGUGC | -2.95 ± 0.25 | -2.88 ± 0.31 |
| CUCGAGCAAUAUUACGGUGG | -2.25 ± 0.13 | -1.75 ± 0.17 |
| CUCGAGCAAUAUUACGGUGU | -2.83 ± 0.33 | -2.7 ± 0.31 |
| CUCGAGCAAUAUUACGUCCA | -1.95 ± 0.25 | -3.15 ± 0.47 |
| CUCGAGCAAUAUUACGUUGC | -3.84 ± 0.42 | -3.45 ± 0.37 |
| CUCGAGCAAUAUUACGUUUU | -3.2 ± 0.13 | -2.1 ± 0.17 |
| CUCUAGCAAUAUUACGACGU |  | -3.03 ± 0.22 |

From the supplement of paper PMC7877785
